Laboratory results published in article doi:10.1101/2022.04.11.487922.
Where a chain is given by its changes, count along the chain named. Where two headings read alike, the source gives them in different places.

Tests used:
[1] = biological target: T1, p50 (in p50/RelA);RelA FL (in p50/RelAFL) (Mus musculus;Mus musculus, UniProt P25799;Q04207 39-350;19-549, |); experiment: EMSA
[2] = biological target: T2, p50 (in p50/RelA);RelA RHD (in p50/RelARHD) (Mus musculus;Mus musculus, UniProt P25799;Q04207 39-350;19-321, |); experiment: EMSA
T2 sequence (P25799 39-350, chain 1 of 2): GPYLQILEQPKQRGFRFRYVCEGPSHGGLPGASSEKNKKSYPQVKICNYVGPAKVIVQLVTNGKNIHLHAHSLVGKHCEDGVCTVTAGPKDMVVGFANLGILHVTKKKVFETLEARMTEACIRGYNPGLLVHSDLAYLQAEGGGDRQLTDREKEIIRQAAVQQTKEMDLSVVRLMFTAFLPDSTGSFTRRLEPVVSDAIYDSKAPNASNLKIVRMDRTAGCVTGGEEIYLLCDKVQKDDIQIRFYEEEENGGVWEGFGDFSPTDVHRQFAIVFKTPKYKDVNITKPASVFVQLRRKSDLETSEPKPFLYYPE
T2 sequence (Q04207 19-321, chain 2 of 2): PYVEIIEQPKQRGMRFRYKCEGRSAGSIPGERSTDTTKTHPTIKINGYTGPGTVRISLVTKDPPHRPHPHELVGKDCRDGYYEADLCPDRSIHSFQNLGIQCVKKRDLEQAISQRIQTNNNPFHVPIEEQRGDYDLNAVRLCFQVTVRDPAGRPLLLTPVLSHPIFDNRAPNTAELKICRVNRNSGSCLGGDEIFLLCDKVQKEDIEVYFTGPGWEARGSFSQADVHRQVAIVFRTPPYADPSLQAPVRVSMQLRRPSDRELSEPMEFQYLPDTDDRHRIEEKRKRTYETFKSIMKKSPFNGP

[3] = biological target: T2, p50 (in p50/RelA);RelA RHD (in …); experiment: EMSA; remark: listed apart in the source
[4] = biological target: T1, p50 (in p50/RelA);RelA FL (in …); experiment: EMSA; remark: listed apart in the source
[5] = biological target: T1, p50 (in p50/RelA);RelA FL (in …); experiment: fluorescence anisotropy
[6] = biological target: T2, p50 (in p50/RelA);RelA RHD (in …); experiment: fluorescence anisotropy
[7] = biological target: T1, p50 (in p50/RelA);RelA FL (in …); experiment: EMSA; remark: listed apart in the source
[8] = biological target: T2, p50 (in p50/RelA);RelA RHD (in …); experiment: EMSA; remark: listed apart in the source
[9] = biological target: T1, p50 (in p50/RelA);RelA FL (in …); experiment: fluorescence anisotropy; remark: listed apart in the source
[10] = biological target: T2, p50 (in p50/RelA);RelA RHD (in …); experiment: fluorescence anisotropy; remark: listed apart in the source
[11] = biological target: T1, p50 (in p50/RelA);RelA FL (in …); experiment: EMSA; remark: listed apart in the source
[12] = biological target: T2, p50 (in p50/RelA);RelA RHD (in …); experiment: EMSA; remark: listed apart in the source
[13] = biological target: T1, p50 (in p50/RelA);RelA FL (in …); experiment: EMSA; remark: listed apart in the source
[14] = biological target: T2, p50 (in p50/RelA);RelA RHD (in …); experiment: EMSA; remark: listed apart in the source
[15] = biological target: T1, p50 (in p50/RelA);RelA FL (in …); experiment: fluorescence anisotropy; remark: listed apart in the source
[16] = biological target: T2, p50 (in p50/RelA);RelA RHD (in …); experiment: fluorescence anisotropy; remark: listed apart in the source
[17] = biological target: T1, p50 (in p50/RelA);RelA FL (in …); experiment: fluorescence anisotropy; remark: listed apart in the source
[18] = biological target: T2, p50 (in p50/RelA);RelA RHD (in …); experiment: fluorescence anisotropy; remark: listed apart in the source

T1 sequence (P25799 39-350, chain 1 of 2): as the sequence (P25799 39-350, chain 1 of 2) above
T1 sequence (Q04207 19-549, chain 2 of 2): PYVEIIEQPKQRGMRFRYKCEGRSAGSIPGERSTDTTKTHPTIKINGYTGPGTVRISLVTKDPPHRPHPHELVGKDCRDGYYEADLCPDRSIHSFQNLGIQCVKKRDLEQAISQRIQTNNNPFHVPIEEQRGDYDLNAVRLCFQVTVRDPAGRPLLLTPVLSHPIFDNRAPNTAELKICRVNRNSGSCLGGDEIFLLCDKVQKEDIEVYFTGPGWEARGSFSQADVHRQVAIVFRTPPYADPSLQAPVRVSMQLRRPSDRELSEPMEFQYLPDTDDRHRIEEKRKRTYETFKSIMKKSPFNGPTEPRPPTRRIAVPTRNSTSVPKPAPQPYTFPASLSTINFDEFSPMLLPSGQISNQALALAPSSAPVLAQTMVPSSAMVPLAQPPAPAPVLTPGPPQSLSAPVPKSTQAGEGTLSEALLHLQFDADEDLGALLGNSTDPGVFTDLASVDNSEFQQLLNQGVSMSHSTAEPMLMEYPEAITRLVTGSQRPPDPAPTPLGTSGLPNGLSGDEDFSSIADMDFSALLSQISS

B1: HIV LTR, site 1 scrambled (dsDNA)
DNA 1: AAGTCGACTGTCGCTGGGGACTTTCCAGGGAGG
DNA 2: CCTCCCTGGAAAGTCCCCAGCGACAGTCGACTT
binding result [1]: binds | binding result [2]: binds

B2: HIV LTR tandem kB 33 bp (EMSA) (dsDNA)
DNA 1: AAGGGACTTTCCGCTGGGGACTTTCCAGGGAGG
DNA 2: CCTCCCTGGAAAGTCCCCAGCGGAAAGTCCCTT
binding result [3]: binds | binding result [4]: binds

B3: HIV LTR tandem dsDNA (anisotropy) (dsDNA)
DNA 1: CAAGGGACTTTCCGCTGGGGACTTTCCAGG
DNA 2: CCTGGAAAGTCCCCAGCGGAAAGTCCCTTG
modifications: 5' 5AmMC6
Kd [5]: 1.3 ± 0.4 nM | Kd [6]: 1.7 ± 0.4 nM

B4: NFKBIA, site 2 scrambled (dsDNA)
DNA 1: CTGACTGGCTTGGAAATTCCCCGAGCCTGACCCCGCCCCAAGCACTGACACAGCCAGCG
DNA 2: CGCTGGCTGTGTCAGTGCTTGGGGCGGGGTCAGGCTCGGGGAATTTCCAAGCCAGTCAG
binding result [7]: binds | binding result [8]: binds

B5: Random hairpin (structured_DNA)
DNA: GTAGACGTGCTCCCCCAGCACGTCTAC
modifications: 5' 5AmMC6
Kd [9]: 130 ± 40 nM | Kd [10]: 1500 ± 100 nM

B6: NFKBIA tandem kB 59 bp (EMSA) (dsDNA)
DNA 1: CTGACTGGCTTGGAAATTCCCCGAGCCTGACCCCGCCCCAGAGAAATCCCCAGCCAGCG
DNA 2: CGCTGGCTGGGGATTTCTCTGGGGCGGGGTCAGGCTCGGGGAATTTCCAAGCCAGTCAG
binding result [11]: binds | binding result [12]: binds

B7: NFKBIA, site 1 scrambled (dsDNA)
DNA 1: B6 DNA 1 with G12A, A14T, A15C, T17C, T18G, C19T, C21A
DNA 2: B6 DNA 2 with G39T, G41A, A42C, A43G, T45G, T46A, C48T
binding result [7]: binds | binding result [8]: binds

B8: HIV LTR, site 2 scrambled (dsDNA)
DNA 1: AAGGGACTTTCCGCTGGTCGACTGTCAGGGAGG
DNA 2: CCTCCCTGACAGTCGACCAGCGGAAAGTCCCTT
binding result [13]: binds | binding result [14]: binds

B9: NFKBIA tandem dsDNA (anisotropy), forward label (dsDNA)
DNA 1: CTTGGAAATTCCCCGAGCCTGACCCCGCCCCAGAGAAATCCCCAG
DNA 2: CTGGGGATTTCTCTGGGGCGGGGTCAGGCTCGGGGAATTTCCAAG
modifications: 5' 5AmMC6
Kd [15]: 1.5 ± 0.7 nM | Kd [16]: 1.7 ± 0.5 nM

B10: NFKBIA tandem dsDNA (anisotropy), reverse label (dsDNA)
DNA 1: B9 DNA 1
DNA 2: B9 DNA 2
modifications: 5' 5AmMC6
Kd [17]: 5.1 ± 0.4 nM | Kd [18]: 10 ± 2 nM
